Numbered stars: 1 amine (or outer) side, 2 acyl side, 3 side chain; on linkers, the order of the positions; unused ones are H or OH. Bridge positions count the residues as written; N and C are the ends. Square brackets hold non-standard residues; d marks the D form. Primed or numbered codes have the meaning given here. Side chains are listed from the residue outwards. Ends that are not written are not given here. Ebes = 2,2'-ethylenedioxy bis(ethylamine) monosuccinamide; Suc = O=C(CCC(=O)[*:2])[*:1]; Ebes″ = not defined here
Legend:
αvβ3 integrin [1] = biological target: T1, αvβ3 integrin (human, UniProt P06756 31-1048; P05106 27-788); assay: flow cytometry, saturation binding of LXW7-Bio on A375M cells
T1 construct: whole, on cells; Same entry used for αvβ3-K562, U-87 MG and A375M cells; also called αvβ3-K562; αvβ3 transfected K562 cells

αvβ3 integrin [2] = biological target: T1, αvβ3 integrin; assay: flow cytometry, saturation binding of LXW7-Bio on U-87 MG cells
αvβ3 integrin [3] = biological target: T1, αvβ3 integrin; assay: flow cytometry, saturation binding of LXW7-Bio on αvβ3-K562 cells
αvβ3 integrin [4] = biological target: T1, αvβ3 integrin; assay: flow cytometry, saturation binding of LXW7-Bio on U-87 MG cells, streptavidin-PE, nonspecific binding with 100 µM LXW7 subtracted
αvβ3 integrin [5] = biological target: T1, αvβ3 integrin; assay: flow cytometry, competition with FITC-Echistatin on αvβ3-K562 cells
αvβ3 integrin [6] = biological target: T1, αvβ3 integrin; assay: flow cytometry, saturation binding of LXW7-Bio on A375M cells, streptavidin-PE, nonspecific binding with 100 µM LXW7 subtracted
αvβ3 integrin [7] = biological target: T1, αvβ3 integrin; assay: flow cytometry, saturation binding of LXW7-Bio on αvβ3-K562 cells, streptavidin-PE, nonspecific binding with 100 µM LXW7 subtracted
αvβ3 integrin [8] = biological target: T1, αvβ3 integrin; assay: flow cytometry, competition with FITC-Echistatin on αvβ3-K562 cells; +++ = IC50 <1 µM
[9] = biological target: T2, αvβ3 integrin (human), P06756; assay: flow cytometry, competition with FITC-Echistatin on αvβ3-K562 cells; details: remark: other sources report otherwise
T2 chain 1: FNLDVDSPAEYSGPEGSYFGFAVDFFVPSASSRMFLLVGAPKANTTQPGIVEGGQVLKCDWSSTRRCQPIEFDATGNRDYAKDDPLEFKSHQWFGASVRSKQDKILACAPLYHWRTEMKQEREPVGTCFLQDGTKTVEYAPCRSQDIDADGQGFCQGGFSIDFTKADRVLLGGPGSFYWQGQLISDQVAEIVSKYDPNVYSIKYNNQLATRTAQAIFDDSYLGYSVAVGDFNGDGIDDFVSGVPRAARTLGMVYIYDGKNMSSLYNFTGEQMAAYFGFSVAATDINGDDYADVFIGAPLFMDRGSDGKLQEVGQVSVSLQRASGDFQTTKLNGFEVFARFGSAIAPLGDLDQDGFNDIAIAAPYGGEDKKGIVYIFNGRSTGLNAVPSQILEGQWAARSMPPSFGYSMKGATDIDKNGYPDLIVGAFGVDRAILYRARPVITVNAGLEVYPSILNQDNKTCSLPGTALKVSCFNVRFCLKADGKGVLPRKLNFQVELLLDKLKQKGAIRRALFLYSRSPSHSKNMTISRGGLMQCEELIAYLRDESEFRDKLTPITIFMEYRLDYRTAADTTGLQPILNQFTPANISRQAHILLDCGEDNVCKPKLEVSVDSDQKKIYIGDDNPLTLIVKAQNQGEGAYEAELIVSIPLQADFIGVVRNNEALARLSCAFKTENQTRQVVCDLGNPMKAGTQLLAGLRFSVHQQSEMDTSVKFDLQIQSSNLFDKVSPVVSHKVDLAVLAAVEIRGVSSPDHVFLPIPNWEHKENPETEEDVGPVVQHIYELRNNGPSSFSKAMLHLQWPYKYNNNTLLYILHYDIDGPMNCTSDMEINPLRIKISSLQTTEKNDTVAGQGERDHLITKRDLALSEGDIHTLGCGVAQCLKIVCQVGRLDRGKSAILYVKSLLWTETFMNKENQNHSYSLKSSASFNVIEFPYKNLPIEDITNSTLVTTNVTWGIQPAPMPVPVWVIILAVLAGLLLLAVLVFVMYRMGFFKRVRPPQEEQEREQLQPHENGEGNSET
T2 chain 2: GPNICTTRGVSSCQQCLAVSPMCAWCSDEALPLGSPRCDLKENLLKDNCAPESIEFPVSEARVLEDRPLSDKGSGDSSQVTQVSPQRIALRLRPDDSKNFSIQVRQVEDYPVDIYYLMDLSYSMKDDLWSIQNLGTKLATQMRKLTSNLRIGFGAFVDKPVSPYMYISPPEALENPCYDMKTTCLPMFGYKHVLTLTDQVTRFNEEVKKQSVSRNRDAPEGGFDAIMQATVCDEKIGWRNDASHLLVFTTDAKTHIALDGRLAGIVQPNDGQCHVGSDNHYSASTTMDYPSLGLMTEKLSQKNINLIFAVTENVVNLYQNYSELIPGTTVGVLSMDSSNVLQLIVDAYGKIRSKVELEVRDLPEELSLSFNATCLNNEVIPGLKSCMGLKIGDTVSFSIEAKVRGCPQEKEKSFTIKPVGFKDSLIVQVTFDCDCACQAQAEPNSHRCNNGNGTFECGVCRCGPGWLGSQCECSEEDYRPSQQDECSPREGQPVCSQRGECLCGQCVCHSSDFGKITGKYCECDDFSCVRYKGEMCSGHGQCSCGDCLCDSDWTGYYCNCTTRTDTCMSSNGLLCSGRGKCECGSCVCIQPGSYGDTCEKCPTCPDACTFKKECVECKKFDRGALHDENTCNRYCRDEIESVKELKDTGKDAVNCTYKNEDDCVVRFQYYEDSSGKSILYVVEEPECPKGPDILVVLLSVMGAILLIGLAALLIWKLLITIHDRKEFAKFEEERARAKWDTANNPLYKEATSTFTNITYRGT

αvβ3 integrin [10] = biological target: T1, αvβ3 integrin; assay: as above; remark: listed apart in the source
αvβ3 integrin [11] = biological target: T1, αvβ3 integrin; assay: as above; remark: listed apart in the source
αvβ3 integrin [12] = biological target: T1, αvβ3 integrin; assay: flow cytometry, competition with biotinylated LXW7 on αvβ3-K562 cells (internal reference)

B1: Biotinylated cyclo(cGRGDdvc) (peptide)
peptide: [dC]GRGD[dD][dV][dC]-{Ebes-Ebes-K(biotin)-NH2}
modifications: disulfide 1-8
Binder B1 has a Bmax (αvβ3 integrin [1]) of 71 A.U, a Bmax (αvβ3 integrin [2]) of 86 A.U and a Bmax (αvβ3 integrin [3]) of 1390 A.U. The Kd (αvβ3 integrin [4]) was 72 nM, the IC50 (αvβ3 integrin [5]) was 620 nM and the Kd (αvβ3 integrin [6]) was 89 nM. The Kd (αvβ3 integrin [7]) was 76 nM.

B2: LXW3 (peptide)
peptide: [dC]GRGD[dS][dE][dC]-NH2
modifications: disulfide 1-8; N-terminus assumed
SMILES: N=C(N)NCCC[C@@H]1NC(=O)CNC(=O)[C@H](N)CSSC[C@H](C(N)=O)NC(=O)[C@@H](CCC(=O)O)NC(=O)[C@@H](CO)NC(=O)[C@H](CC(=O)O)NC(=O)CNC1=O
B2 gave an IC50 (αvβ3 integrin [8]) of under 1000 nM.

B3: cyclo (RGDfK)-Bio (peptide)
peptide: cyclo(RGD[dF]K([Suc-Ebes″-Lys(biotin)NH2]))
modifications: reading uncertain
With B3 the IC50 [9] was 1370 nM.

B4: cyclo (RGDfE)-Bio (peptide)
peptide: cyclo(RGD[dF]E([Ebes-Ebes-Lys(biotin) amide]))
notes: also called Biotinylated Cyclo(RGDfE)
With B4 the “fold decrease in affinity on biotinylation (against the non-biotinylated form)” value (αvβ3 integrin [10]) was 2 to 8 fold and the IC50 (αvβ3 integrin [11]) was 4700 nM.

B5: cyclo(RGDfE) (peptide)
peptide: cyclo(RGD[dF]E)
SMILES: N=C(N)NCCC[C@@H]1NC(=O)[C@H](CCC(=O)O)NC(=O)[C@@H](Cc2ccccc2)NC(=O)[C@H](CC(=O)O)NC(=O)CNC1=O
For B5, the IC50 (αvβ3 integrin [11]) was 600 nM.

B6: LXW7 (peptide)
peptide: [dC]GRGD[dD][dV][dC]-NH2
modifications: disulfide 1-8; N-terminus assumed
SMILES: CC(C)[C@H]1NC(=O)[C@@H](CC(=O)O)NC(=O)[C@H](CC(=O)O)NC(=O)CNC(=O)[C@H](CCCNC(=N)N)NC(=O)CNC(=O)[C@H](N)CSSC[C@H](C(N)=O)NC1=O
For B6, the IC50 (αvβ3 integrin [12]) was 590 nM, the IC50 (αvβ3 integrin [8]) was under 1000 nM and the IC50 (αvβ3 integrin [5]) was 680 nM.

— patent US9073974B2, “RGD-containing cyclic peptides” (The Regents of the University of California, priority 2009, dated 2015)
